According to the supplement of paper PMC10598134:
± gives the standard deviation.

Assay: collision cross section of unmodified peptide (TIMS, N2, iRT-aligned); higher = larger / more extended gas-phase ion
Procedure, shortened: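 Collision cross section values rest on the Mason-Schamp equation applied to calibrated, run-aligned mobility data from synthetic peptides. Mobility (1/K0) was calibrated with three reference ions and aligned per run to the median iRT peptide deviation, and 1–3 technical replicates of the most abundant feature per charge state were averaged. Data came from a timsTOF Pro/HT in dda-PASEF mode (nitrogen, ~2.4 mbar) after a 120-min nanoflow C18 gradient at 60 °C.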

Substance | collision cross section (charge state: 3) | collision cross section (charge state: 2)
LPPGALAHRLPTTGYLVYR | 556.45 ± 1.4 Å² | –
LPEYPQVDDLLLR | – | 420.84 ± 0.76 Å²
PGSPGPPGSPGPR | 430.78 ± 12 Å² | 347.56 ± 0.41 Å²
VGVEVPDVNIEGPEGKLK | 537.32 ± 2.3 Å² | 456.21 ± 2.8 Å²
GPPGPAGPSGESR | – | 343.88 ± 1 Å²
GEKGNPGVGTQGPR | 437.26 ± 1.3 Å² | 370.3 ± 0.92 Å²
DYSQPTAAATVQDIK | – | 421.28 ± 0.57 Å²
PAVTAAPK | – | 290.54 ± 0.15 Å²
GEYFGEK | – | 311.09 ± 0.97 Å²
LGSASSSHGSIQESHK | 509.47 ± 1.3 Å² | –
VNIGQGSHPQKVK | 469.44 ± 3.7 Å² | 416.89 ± 2.1 Å²
PSVGSQSNQAGQGKR | 465.3 ± 4.2 Å² | 422.59 ± 2.3 Å²
GGGYGGDRGGYGGDR | 463.21 ± 0.23 Å² | 380.24 Å²
GEAGPTGPQGEPGVRGIR | 495.75 ± 4.4 Å² | –
AGRGFSLEELR | 459.45 ± 3.3 Å² | 376.05 ± 0.67 Å²
TEVNSGFFYK | – | 366.57 ± 0.48 Å²
LSEHATAPTR | 452.29 ± 0.22 Å² | 353.05 ± 0.78 Å²
FLQEFYQDDELGK | – | 424.29 ± 0.5 Å²
LQAAYAGDKADDIQK | 497.53 ± 4.8 Å² | 429.74 ± 2.5 Å²
GEVGAGAGPGAQAGPSAKR | 469.26 ± 5.9 Å² | 436.7 ± 2.1 Å²
LLEQKTQESQK | 453.32 ± 3.2 Å² | 394.71 ± 1.6 Å²
PPGFSPFR | – | 328.84 ± 0.79 Å²
PLRAASPFR | 447.55 ± 5.2 Å² | 352.16 ± 0.084 Å²
ASTPGAAAQIQEVK | – | 395.93 ± 0.14 Å²
LGVATVAKGVCGACK | 487.58 ± 4.2 Å² | 433.92 ± 2.8 Å²
GGPGGELPRGPQAGLGPR | 491.33 ± 3.4 Å² | 431.54 Å²
SLIGKVDGTSHVTGK | 491.82 ± 0.22 Å² | 430.43 ± 0.65 Å²

Substance | collision cross section (charge state: 3) | collision cross section (charge state: 2)
DHLSDKESK | 415 ± 3.9 Å² | 345.48 ± 0.71 Å²
GRGTSQLAEGATAK | 463.88 ± 3.2 Å² | 389.78 ± 0.35 Å²
IHPEGPPLK | 438.33 ± 2 Å² | 335.79 ± 0.58 Å²
TFGKAAGPSLSHTSGGTQSK | 520.05 ± 2.3 Å² | 462.76 ± 2.3 Å²
IQQELQTAKK | 429.26 ± 3.7 Å² | 374.48 ± 0.53 Å²
YSSSSIPEPFGSRGSPR | 521.94 ± 0.21 Å² | 433.42 Å²
ITLSKHQNVQLPR | 515.94 ± 19 Å² | 434.86 ± 3.1 Å²
GFCFITYTDEEPVKK | 509.46 ± 2.1 Å² | 461.17 ± 2.5 Å²
VPQAQPTKPALK | 486.38 ± 2.7 Å² | 384.79 ± 0.67 Å²
LGDVYVNDAFGTAHR | 501.14 ± 0.88 Å² | 434.69 ± 0.66 Å²
DLTTAGAVTQCYR | 489.14 Å² | 396.98 ± 0.16 Å²
AAYQAAIRGVGSAQSR | 509.17 ± 1.3 Å² | 436.77 ± 1.2 Å²
TTLTSDESVKDHTTAGR | 528.1 ± 0.21 Å² | –
ALLQAKASGK | 435.19 ± 4.7 Å² | 343.27 ± 1.1 Å²
PGPVGPPGSGGLK | – | 353.19 ± 0.41 Å²
CYYGSDTAGR | – | 353.22 ± 1.1 Å²
TQAEGQGQGRGLGLVSAVR | 513.29 ± 0.77 Å² | –
PGNSGIR | – | 278.56 ± 0.86 Å²
LEQVEKELLR | 455.22 ± 4.1 Å² | 383.51 ± 1.5 Å²
YVHADAPTNK | 415.08 ± 2 Å² | 347.85 ± 2.8 Å²
DSSPTTNSKLSALQR | 485.64 ± 4.2 Å² | 418.1 ± 2.2 Å²
DYQPGITFIVVQK | 485.74 Å² | 401.42 ± 0.24 Å²
GFPGAPGLPGLKGHR | 475.59 ± 1.2 Å² | –
LTSLNVKYNNDK | 487.29 ± 4.9 Å² | 409.04 ± 2 Å²
LGILPVGRGK | 438.91 ± 4.7 Å² | 351.11 ± 0.11 Å²
DASTLQSQKAEGTGDAK | 495.18 ± 2.5 Å² | 442.88 ± 2.3 Å²
SGGGYGGDRGGGYGGDR | 460.09 ± 0.81 Å² | 393.08 ± 1.3 Å²

Substance | collision cross section (charge state: 3) | collision cross section (charge state: 2)
SGGYGGSRDYYSSR | 474.66 ± 1.4 Å² | 399.15 ± 1.2 Å²
TLDEILQEKK | 432.42 ± 3.6 Å² | 375.43 ± 1 Å²
STNVTVAAARGIK | 480.75 ± 3.1 Å² | 399.07 ± 1.1 Å²
ASAISIKLGSSK | 446.31 ± 5.8 Å² | 373.11 ± 0.93 Å²
GNDISSGTVLSDYVGSGPPKK | 543.89 ± 0.71 Å² | –
VRFHNPR | 406.2 ± 6.3 Å² | 337.63 ± 0.7 Å²
SYSVGASGSSSR | – | 351.41 ± 0.48 Å²
HTLLRAPAPELLPANVAGR | 530.02 ± 1.9 Å² | –
YIEIYVQKVNPSR | 505.68 ± 2.1 Å² | 435.38 ± 2.7 Å²
VLATQPGPGRGR | 447.7 ± 3 Å² | 368.04 ± 0.27 Å²
ASPPLFQSR | – | 339.74 ± 0.58 Å²
LGPPGNPGPSGSPGPK | 453.1 ± 18 Å² | 383.56 ± 0.58 Å²
RGATPPAPPRR | 465.11 ± 2.3 Å² | –
FGVEAFSDCLR | – | 384.72 ± 0.67 Å²
IVSGKDYNVTANSK | 485.92 ± 5.8 Å² | 405.96 ± 2.6 Å²
ANAIGRGAK | – | 319.32 ± 2.5 Å²
PGLKGEQGEPGAPGIR | 510.99 ± 0.86 Å² | 410.66 ± 1.2 Å²
TATLATLATR | – | 333.86 ± 0.69 Å²
ASEALLKQLK | 459.21 ± 3.1 Å² | 367.26 ± 1.1 Å²
GGGFGAHGRGR | 420.87 ± 5.1 Å² | 350.63 ± 2.6 Å²
CQGGQETQEYR | – | 370.06 ± 0.16 Å²
IYHPNVDK | 425.77 ± 2 Å² | 337.77 ± 0.73 Å²
AAQASDLEKIHLDEK | 506 ± 5.5 Å² | 447.85 ± 1.2 Å²
TLTPASSPVSSPSKHGDR | 512.67 ± 1 Å² | –
TTSYPTPRPYPKPAPSSGK | 522.76 ± 0.86 Å² | –
VGADGTVFATR | – | 348.87 ± 0.14 Å²
KYEEIDNAPEER | 466.95 ± 4.5 Å² | 401.01 ± 1.2 Å²

Substance | collision cross section (charge state: 3) | collision cross section (charge state: 2)
LLALSGPGGGRGR | 451.48 ± 1.9 Å² | 381.45 ± 1.3 Å²
GDAGEPGRPGSPGK | 449.7 ± 1.2 Å² | 357.76 ± 0.58 Å²
FSYTSQHSDYGQR | 485.4 ± 1 Å² | –
SFSASGAQIVSR | – | 366.99 ± 0.14 Å²
LSTPPPLAEEEGLASR | 482.68 ± 0.86 Å² | 436.07 ± 0.65 Å²
LYDIDVAK | – | 334.71 ± 0.73 Å²
SHLRHAIPSAER | 458.41 ± 2.7 Å² | 388.74 ± 0.39 Å²
VSPASSVDSNIPSSQGYKK | 542.55 ± 1.8 Å² | 469.69 ± 3.1 Å²
VTPHPSPRGSPLPTPK | 550.88 ± 0.55 Å² | 427.24 Å²
SPSDSGYSYETIGKTTK | 517.54 ± 3.3 Å² | 441.25 ± 2.3 Å²
HHTLRQAPQPQSSLQR | 502.65 ± 0.69 Å² | –
DYVSQFEGSALGK | – | 385.54 ± 0.47 Å²
SRFYSGFNSR | 436.82 ± 3.8 Å² | 370.83 ± 0.54 Å²
DFSLTSSSQTPGATK | 461.25 ± 8.8 Å² | 412.17 ± 0.66 Å²
DLSTVEALQNLKNLK | 543.69 ± 1.2 Å² | 472.99 ± 2.9 Å²
LPTTAASTPDAVDK | – | 396.7 ± 0.66 Å²
GSLGAQKLANTCFNEIEK | 511.29 ± 4.4 Å² | 483.18 ± 2.7 Å²
LFVGGIKEDTEEHHLR | 544.82 ± 2.6 Å² | 486.85 ± 3.6 Å²
FGYVDFESAEDLEK | – | 428.91 ± 0.24 Å²
YTAILNQIPSHSSSIR | 510.98 ± 3.8 Å² | 475.98 ± 0.82 Å²
IGSLDNITHVPGGGNK | 470.46 ± 1.9 Å² | –
GDPGLIGPK | – | 313.62 ± 1.5 Å²
GEKGLPGLAGDHGEFGEK | 564.38 ± 1.3 Å² | –
ITASLCDLKSR | 460.65 ± 3.9 Å² | 397.44 ± 4.9 Å²
